# Data reported in patent US20230398116A1, “Agent for reversing resistance to anticancer drugs” (Y'S AC CO., LTD., priority 2020, published 2023).
# T1: IL-26 (Homo sapiens, UniProt Q9NPH9)
# T1 sequence (Q9NPH9 22-171): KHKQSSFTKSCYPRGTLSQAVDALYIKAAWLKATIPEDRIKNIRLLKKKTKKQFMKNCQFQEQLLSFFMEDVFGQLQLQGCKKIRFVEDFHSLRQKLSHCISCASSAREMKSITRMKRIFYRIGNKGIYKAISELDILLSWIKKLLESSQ
# Legend:
# E0771 cells = test: In vivo TNBC transplantation model (E0771 in hIL-26Tg or control mice); parameters: species or system mouse
# Procedure: E0771 cells (5×10^5) with 50% Matrigel were injected subcutaneously into the flank of hIL-26Tg mice or control mice. Tumor measurements were performed using caliper and volume was calculated using an equation (v=width×width×(length/2)). gefitinib was suspended in H2O with 1% tween (registered trademark) 80 for oral administration (50 mg/kg). Ten days after injection of E0771 cells, the oral administration once a day was performed 5 times a week. As a control, 1% tween (registered trademark) 80 containing H2O without Gefiinib was administered. The monoclonal antibody (mAb) treatment was performed by diluting anti-IL-26 mAb (clone 69-10) (Hatano R et al., MAbs (2019) 1-15, and JP 2009-99492 A) or mouse IgG1 isotype control to 1 mg/ml with sterile PBS, and by intraperitoneal injection of 200 μl (200 μg) once a day twice a week starting on day 10 after E0771 cell injection. Mice were sacrificed until subcutaneous tumor size reached 1600 mm^3. E0771 and HCC70 cells (1×10^5) were cultured for 24 hours in RPMI1640 medium with 10% FCS on Lab-Tek chamber slides (Thermo Fisher Scientific). […] Subcutaneous tumor samples obtained from mice were fixed in 4% paraformaldehyde (Thermo Fisher Scientific) and embedded in OCT compound (Tissue-Tek (registered trademark), Sakura Finetek, Japan). Cells and slides were immunostained with each antibody and observed using a Zeiss inverted microscope and Axiovision 2.0 program (Carl Zeiss, Germany). The fluorescence intensity was quantified with Image-J software (NIH). The images were captured using a 100×400× objective.
# [1] = system: phosphorylation of AKT, JNK, STAT3 and EphA3 in E0771 cells; test: Western blotting of phosphorylation in E0771 cells; assay type: cell-based, mouse
# Procedure: (§1) To analyze the phosphorylation of AKT, ERK, p38, JNK, STAT3, and EphA3, E0771 cells and HCC70 cells in 100 mm dishes were stimulated with IL-26 ([…]) and an anti-EphA3 polyclonal antibody (pAb) (10 μg/ml) for a specified period of time. After stimulation, the cells were lysed with a 2% protease inhibitor mixture (Sigma-Aldrich) and/or RIPA buffer added with 1×PhosSTOP (Roche Diagnostics, Tokyo, Japan), and a lysate was separated in a reduced state by SDS-PAGE (15 μg/lane). Immunoblots were performed using an anti-phosphorylated AKT antibody, an anti-phosphorylated ERK antibody, an anti-phosphorylated p38 antibody, an anti-phosphorylated JNK antibody, an anti-phosphorylated STAT3 antibody, and an anti-phosphorylated EphA3 antibody that recognize both human and mouse antigens. For reprobing, the membrane was immersed in a stripping buffer. After the stripping procedure, the membranes were re-probed with anti-pan-AKT, anti-pan-ERK, anti-pan-p38, anti-pan-JNK, anti-pan-STAT3, and anti-pan-EphA3 antibodies recognizing both human and mouse antigens. Images were taken using a C-Digit Blot scanner (MS Techno Systems, Inc., Japan).
# [2] = system: phosphorylation of AKT, JNK and EphA3 in HCC70 cells; test: Western blotting of phosphorylation in HCC70 cells; assay type: cell-based, human; details: HCC70, IL-26 30 ng/ml or Ephrin A5 200 ng/ml, gefitinib 40 μM, FIG. 26
# Procedure: as §1
# [3] = Heterogeneous chronic GVHD model (NOG mice transplanted with human umbilical cord blood mononuclear cells); assay type: in vivo, mouse; details: for lung histopathology (inflammatory cell infiltration, fibrogenesis, collagen): eight weeks after transplantation, H&E and Azan-Mallory staining, FIG. 60
# Procedure: On day −1, NOG mice were irradiated with a sublethal dose (100 cGy). On day 0, 5×10^6 human umbilical cord blood mononuclear cells were transplanted from the tail vein of NOG mice. Survival of the mice was assessed daily and body weight was measured twice a week. In an antibody treatment experiment, the control human IgG or anti-human IL-26 monoclonal antibody (the mouse antibody m69-10 and the humanized antibody h69-10A) was administered from day +28 of transplantation when clinical signs/symptoms of mild GVHD began to appear. The antibody solution was adjusted to a concentration of 1 mg/mL with sterile PBS, and 200 μL (200 μg) of the antibody solution per mouse was intraperitoneally injected twice a week. On day +56 after transplantation, the mice were sacrificed, and the skin, lung, liver, and large intestine were collected.
# NOG mice were dissected, and then the skin, lung, liver, and large intestine on the back were excised, fixed in 10% formalin solution (Wako) at room temperature, and embedded in paraffin. Thereafter, a section having a thickness of 5 μm was prepared and placed on a glass slide, and stained with hematoxylin and eosin (H&E). In addition, in order to confirm the proliferation of collagen fibers, Azan-Mallory staining was performed. Images of the optical microscope were taken with an Olympus BX41 microscope (OLYMPUS, Tokyo, Japan) connected with an Olympus digital camera DP25, and CellSens software was used.
# IL-26 = target: T1, IL-26; test: MTT assay of HUVECs stimulated with IL-26 (neutralizing activity of IL-26); assay type: cell-based; parameters: purchased R&D Systems; host or cells: added exogenously to HUVECs; details: HUVECs, IL-26 10 ng/mL, 48 hours, MTT assay
# Procedure: Human and mouse breast cancer cells (1×10^4) were cultured in 10% FCS containing RPMI1640 medium on a 96-well flat bottom plate (Corning, Tewksbury, MA) at 37° C. for 24 hours, and then stimulated with IL-26 for 48 hours in the presence or absence of EGFR-TKI (gefitinib or erlotinib) at various concentrations, a signal inhibitor, and a neutralizing antibody. HUVECs were seeded in a 96-well flat bottom plate at 5×10^3 cells/well in a 2% FBS-containing EGM medium in which growth factors were reduced by half, and cultured at 37° C. for 12 hours. Thereafter, the medium was aspirated, and a recombinant human IL-26 dimer was adjusted to a final concentration of 10 ng/mL in a 2% FBS-containing EGM medium containing no growth factors, and added to the cells. The stimulation was started in the presence or absence of control human IgG and anti-human IL-26 antibodies, and the cells were cultured for 48 hours. Thereafter, a concentration of 20 μl or 1/10 of a 5 mg/ml MTT solution (Tetrazolium monosodium salt, WST-8) was added to each well, and the plate was allowed to stand for 1 hour. The absorbance at 450 nm/595 nm was measured using Microplate Reader (Bio-Rad, Hercules, CA) and data was analyzed with Microplate Manager 6 software (Bio-Rad).
# [4] = 200 μg per mouse i.p. twice a week from day 28, data not shown
molecule,measurement,setting,value
"COc1cc2ncnc(Nc3ccc(F)c(Cl)c3)c2cc1OCCCN1CCOCC1 [gefitinib, Gefitinib, reference compound]",number of Ly6G+ granulocytes infiltrating TME,"E0771 cells; gefitinib-treated WT and hIL-26Tg mice compared to vehicle-treated, FIG. 40",significantly increased
same,phosphorylation of AKT in tumor cells,"E0771 cells; gefitinib-treated WT mice, tumor resected 14 days after inoculation, FIG. 41",strongly suppressed
same,phosphorylation of JNK in tumor cells,"E0771 cells; gefitinib-treated WT mice, tumor resected 14 days after inoculation, FIG. 42",strongly suppressed
same,tumor growth in hIL-26Tg mice,"E0771 cells; hIL-26Tg mice, gefitinib 50 mg/kg oral gavage, FIG. 35",tumor suppression by gefitinib was significantly inhibited
same,tumor growth in control mice,"E0771 cells; littermate control (WT) mice, gefitinib 50 mg/kg oral gavage once a day, five times a week, FIG. 35",suppressed
same,AKT and JNK phosphorylation under gefitinib,"[1]; E0771, gefitinib 20 μM, FIG. 24B",suppression of AKT and JNK phosphorylation
"IL-26: recombinant human IL-26 dimers for cell stimulation, R&D Systems (protein) KHKQSSFTKSCYPRGTLSQAVDALYIKAAWLKATIPEDRIKNIRLLKKKTKKQFMKNCQFQEQLLSFFMEDVFGQLQLQGCKKIRFVEDFHSLRQKLSHCISCASSAREMKSITRMKRIFYRIGNKGIYKAISELDILLSWIKKLLESSQ","dephosphorylation of EphA3, activation of AKT and JNK phosphorylation",[2],"dephosphorylation of EphA3, activation of AKT and JNK phosphorylation"
same,phosphorylation of EphA3,"[1]; E0771, IL-26 30 ng/ml, 0 to 60 minutes, FIG. 24A",induced dephosphorylation of EphA3
same,AKT and JNK phosphorylation,"[1]; E0771, IL-26 30 ng/ml, FIG. 5E",activated AKT and JNK phosphorylation
same,STAT3 activation,"[1]; E0771, IL-26 30 ng/ml, FIG. 5E",did not activate STAT3
"69-10: mouse anti-human IL-26 monoclonal antibody, clone 69-10, from deposited hybridoma (antibody, V domains shown) VH: QVTLKESGPGILKPSQTLSLTCSFSGFSLSTSGMGVGWIRQPSGKGLEWLAHIWWDDDKYYNPSLKSQLTISKDTSRNQVFLKITSVDTADTATYYCVRGGITATHYYAMDYWGQGTSVTVSS VL: DIQMTQSPASQSASLGESVTISCLASQTIGTWLSWYQQKPGKSPQLLIYAATSLADGVPSRFSGSGSGTKFSFKISSLQAEDFVSYYCQQLYSSPWTFGGGTKLEIK","tumor growth, anti-IL-26 mAb and gefitinib","E0771 cells; hIL-26Tg mice, clone 69-10 200 μg/dose i.p. twice a week with gefitinib, compared to gefitinib alone, FIG. 36",significantly reduced
same,"tumor growth, anti-IL-26 mAb alone","E0771 cells; hIL-26Tg mice, not illustrated",no effect on tumor growth
same,body weight loss,[3]; [4],clearly reduced
same,number of survival days,[3]; [4],significantly prolonged
same,"lung histopathology (inflammatory cell infiltration, fibrogenesis, collagen)",[3],clearly reduced
same,"lung histopathology (inflammatory cell infiltration, fibrogenesis, collagen)",[3]; listed as m69-10,"suppression of inflammatory cell infiltration, reduction of fibrogenesis, and reduction of collagen deposition were remarkably observed"
same,hair disorder (appearance),[3]; eighth week of transplantation,slightly suppressed
same,inhibitory effect of IL-26 (IL-26-promoted proliferation of HUVECs),IL-26,not inferior to that of the commercially available goat anti-human IL-26 polyclonal antibody
